From patent US6723838 (Johns Hopkins, dated 2004) come the findings set out here.

Assay [1] addresses T1, SYNGAP deletion mutant 894 to 1134 (-QTR*) (rat, UniProt Q9QUH6 1067-1307).
T1 construct: PCR generated deletion mutant, ends in -QTR; not shown: The GAL4 two-hybrid fusion domain and its junction residues
T1 sequence: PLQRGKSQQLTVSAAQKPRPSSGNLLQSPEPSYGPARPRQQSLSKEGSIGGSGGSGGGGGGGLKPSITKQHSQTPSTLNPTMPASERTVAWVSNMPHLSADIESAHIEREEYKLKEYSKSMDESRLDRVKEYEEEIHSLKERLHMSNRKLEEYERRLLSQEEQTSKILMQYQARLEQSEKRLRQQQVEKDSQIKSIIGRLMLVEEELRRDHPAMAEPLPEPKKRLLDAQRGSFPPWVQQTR
Put plainly: yeast two-hybrid, HIS3 growth without leucine, tryptophan and histidine in 100 mM 3-aminotriazole. The source says:
(§1) The PDZ domains of PSD-95/SAP90 and SAP102 were amplified by PCR and subcloned into the yeast vector, pPC 86. PDZ domain 1 of PSD-95 covers the amino acids from 40 to 160; PDZ domain 2, from 156 to 248; and PDZ domain 3, from 298 to 403. See e.g., Cho et al., (1992) Neuron 9:929 for disclosure relating to the PSD-95 sequence.

Assay [2] addresses T2, SYNGAP deletion mutant 894 to 1132 (-Q*) (rat, UniProt Q9QUH6 1067-1305).
T2 construct: PCR generated deletion mutant, ends in -Q; not shown: The GAL4 two-hybrid fusion domain and its junction residues
T2 sequence: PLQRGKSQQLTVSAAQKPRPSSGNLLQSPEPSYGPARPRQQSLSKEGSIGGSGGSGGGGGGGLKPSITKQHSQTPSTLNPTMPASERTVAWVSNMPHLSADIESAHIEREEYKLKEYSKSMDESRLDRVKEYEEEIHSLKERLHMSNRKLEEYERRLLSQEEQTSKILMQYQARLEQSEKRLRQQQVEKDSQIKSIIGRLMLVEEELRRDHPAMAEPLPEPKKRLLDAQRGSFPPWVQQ
Described as above.
Text: as §1

Assay [3] addresses T3, SYNGAP of rat brain (endogenous) (rat, UniProt Q9QUH6 174-1308, limits assumed).
T3 construct: Native protein in brain homogenates, deoxycholate extracts of brain membranes and cultured hippocampal neurons; runs as a doublet or triplet, so the isoform is not certain; also called 130 kDa protein in brain; doublet or triplet of proteins at 130 kDa
T3 sequence: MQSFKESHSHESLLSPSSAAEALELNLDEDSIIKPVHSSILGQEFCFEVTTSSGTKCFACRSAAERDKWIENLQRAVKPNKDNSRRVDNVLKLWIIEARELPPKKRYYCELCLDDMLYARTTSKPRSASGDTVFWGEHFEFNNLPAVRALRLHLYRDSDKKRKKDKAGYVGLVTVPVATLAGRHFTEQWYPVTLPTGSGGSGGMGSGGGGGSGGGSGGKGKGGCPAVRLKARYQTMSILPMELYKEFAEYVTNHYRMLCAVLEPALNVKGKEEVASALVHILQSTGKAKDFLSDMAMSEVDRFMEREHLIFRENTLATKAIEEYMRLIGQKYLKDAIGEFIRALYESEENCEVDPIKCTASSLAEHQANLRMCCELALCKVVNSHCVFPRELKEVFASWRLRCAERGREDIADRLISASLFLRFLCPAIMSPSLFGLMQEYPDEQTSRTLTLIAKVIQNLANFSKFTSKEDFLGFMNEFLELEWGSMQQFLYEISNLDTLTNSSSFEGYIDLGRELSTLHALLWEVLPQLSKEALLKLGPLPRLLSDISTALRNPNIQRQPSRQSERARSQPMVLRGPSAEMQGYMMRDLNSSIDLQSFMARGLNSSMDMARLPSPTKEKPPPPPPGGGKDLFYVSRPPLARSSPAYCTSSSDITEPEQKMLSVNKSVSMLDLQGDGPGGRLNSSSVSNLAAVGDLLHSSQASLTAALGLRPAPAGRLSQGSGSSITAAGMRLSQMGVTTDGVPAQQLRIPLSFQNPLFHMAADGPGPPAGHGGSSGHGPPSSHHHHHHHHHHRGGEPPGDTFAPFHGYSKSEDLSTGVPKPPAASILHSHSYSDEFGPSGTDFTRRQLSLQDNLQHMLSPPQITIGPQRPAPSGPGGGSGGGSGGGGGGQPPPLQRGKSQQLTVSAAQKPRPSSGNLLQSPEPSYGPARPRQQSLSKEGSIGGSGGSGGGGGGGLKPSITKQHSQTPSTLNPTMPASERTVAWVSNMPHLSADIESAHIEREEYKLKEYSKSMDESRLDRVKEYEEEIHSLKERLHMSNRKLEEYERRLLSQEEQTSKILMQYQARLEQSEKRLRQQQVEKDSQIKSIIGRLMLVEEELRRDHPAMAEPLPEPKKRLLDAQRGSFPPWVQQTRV
Put plainly: coimmunoprecipitation from deoxycholate solubilized rat brain membranes, immunoblot. (In general: In western blotting, separated proteins are transferred to a membrane and probed.)
Description: Cortex and hippocampus from a male Sprague-Dawley rat, age of 4 to 6 weeks were homogenized twice using a glass-Teflon homogenizer with protease inhibitors (antipain, chymotrypsin, leupeptin, Trasylol, 0.1 mM PMSF). After determining the protein concentration of the P2 fraction by a Coomasie assay (Pierce), aliquots of the proteins at 3 mg/ml were stored at −80° C. until use. For coimmunoprecipitation, PA (300 μg per IP) was solubilized by 1.0% sodium deoxycholate followed by 0.1% Triton X-100 and the preparation was centrifuged for 10 minutes at 100,000×g. The supernatant was then used for coimmunoprecipitation.
The clarified supernatant of solubilized P2 fraction was then added to the sepharose beads and the mixture incubated for 2 to 3 hours at 4° C. […] When the antibodies were blocked with antigens, they were preincubated with the peptide at concentration of 100 µg/ml or fusion proteins at concentration of 50 µg/ml.

B1: SAP102 PDZ 3 subcloned into yeast vector pPC 86 (other, UniProt Q62936 404-484, looked up, not shown: large carriers)
chain: KIILHKGSTGLGFNIVGGEDGEGIFVSFILAGGPADLSGELRRGDRILSVNGVNLRNATHEQAAAALKRAGQSVTIVAQYR
notes: domain: PDZ 3; Limits of the pPC86 construct are not restated; the bait construct of the same domain covers 367 to 452; also called third PDZ domain of SAP102
Take B1: the binding result in assay [1] and in assay [2] was “no binding” in each case.

B2: GluR1 subunit of rat brain (endogenous) (receptor, UniProt P19490 19-907, looked up)
chain: ANFPNNIQIGGLFPNQQSQEHAAFRFALSQLTEPPKLLPQIDIVNISDSFEMTYRFCSQFSKGVYAIFGFYERRTVNMLTSFCGALHVCFITPSFPVDTSNQFVLQLRPELQEALISIIDHYKWQTFVYIYDADRGLSVLQRVLDTAAEKNWQVTAVNILTTTEEGYRMLFQDLEKKKERLVVVDCESERLNAILGQIVKLEKNGIGYHYILANLGFMDIDLNKFKESGANVTGFQLVNYTDTIPARIMQQWRTSDSRDHTRVDWKRPKYTSALTYDGVKVMAEAFQSLRRQRIDISRRGNAGDCLANPAVPWGQGIDIQRALQQVRFEGLTGNVQFNEKGRRTNYTLHVIEMKHDGIRKIGYWNEDDKFVPAATDAQAGGDNSSVQNRTYIVTTILEDPYVMLKKNANQFEGNDRYEGYCVELAAEIAKHVGYSYRLEIVSDGKYGARDPDTKAWNGMVGELVYGRADVAVAPLTITLVREEVIDFSKPFMSLGISIMIKKPQKSKPGVFSFLDPLAYEIWMCIVFAYIGVSVVLFLVSRFSPYEWHSEEFEEGRDQTTSDQSNEFGIFNSLWFSLGAFMQQGCDISPRSLSGRIVGGVWWFFTLIIISSYTANLAAFLTVERMVSPIESAEDLAKQTEIAYGTLEAGSTKEFFRRSKIAVFEKMWTYMKSAEPSVFVRTTEEGMIRVRKSKGKYAYLLESTMNEYIEQRKPCDTMKVGGNLDSKGYGIATPKGSALRNPVNLAVLKLNEQGLLDKLKNKWWYDKGECGSGGGDSKDKTSALSLSNVAGVFYILIGGLGLAMLVALIEFCYKSRSESKRMKGFCLIPQQSINEAIRTSTLPRNSGAGASGGGGSGENGRVVSQDFPKSMQSIPCMSHSSGMPLGATGL
notes: also called NMDA receptor GluR1 subunit (so in the source)
B2: the binding result in assay [3] is “no binding”.
